Changes are numbered by the printed parent chain. In names and notes the source's numbering stands.
Molecular target: the molecule itself
Assay: cross-linking; purified recombinant RRM2 proteins cross-linked with 2 mM disuccinimidylsuberate (DSS), SDS-PAGE

B1: Recombinant His6-tagged WT RRM2 (natural protein, human, UniProt P31350 1-389, looked up)
chain: MLSLRVPLAPITDPQQLQLSPLKGLSLVDKENTPPALSGTRVLASKTARRIFQEPTEPKTKAAAPGVEDEPLLRENPRRFVIFPIEYHDIWQMYKKAEASFWTAEEVDLSKDIQHWESLKPEERYFISHVLAFFAASDGIVNENLVERFSQEVQITEARCFYGFQIAMENIHSEMYSLLIDTYIKDPKEREFLFNAIETMPCVKKKADWALRWIGDKEATYGERVVAFAAVEGIFFSGSFASIFWLKKRGLMPGLTFSNELISRDEGLHCDFACLMFKHLVHKPSEERVREIIINAVRIEQEFLTEALPVKLIGMNCTLMKQYIEFVADRLMLELGFSKVFRVENPFDFMENISLEGKTNFFEKRVGEYQRMGVMSSPTENSFTLDADF
notes: RRM2, human; Purification may be described in the Supplementary Methods; also called recombinant RRM2 WT; source: E. coli, purified
  stoichiometry N: 2

B2: Recombinant K95R RRM2 (natural protein, human, UniProt P31350 1-389, looked up)
chain: B1 chain with K95R
notes: RRM2, human, with K95R; Probably His6-tagged and made in E. coli like the WT and K95Q proteins; source: recombinant, purified
  stoichiometry N: 2

From article PMC6642173, “Acetylation regulates ribonucleotide reductase activity and cancer cell growth” (Nature Communications, 2019)
